{"source": "paper PMC5435990", "about": "(Nucleic Acids Research, 2017)", "proteins": {"B1": {"name": "GFP-Mrr D203A catalytic mutant (enzyme)", "chain": "MTVPTYDKFIEPVLRYLATKPEGAAARDVHEAAADALGLDDSQRAKVITSGQLVYKNRAGWAHDRLKRAGLSQSLSRGKWCLTPAGFDWVASHPQPMTEQETNHLAFAFVNVKLKSRPDAVDLDPKADSPDHEELAKSSPDDRLDQALKELRDAVADEVLENLLQVSPSRFEVIVLDVLHRLGYGGHRDDLQRVGGTGDGGIAGVISLDKLGLEKVYVQAKRWQNTVGRPELQAFYGALAGQKAKRGVFITTSGFTSQARDFAQSVEGMVLVDGERLVHLMIENEVGVSSRLLKVPKLDMDYFE"}, "B2": {"name": "Strep-tagged GFP-Mrr (enzyme, Escherichia coli K-12, UniProt P24202 1-304, looked up)", "chain": "B1 chain with A203D"}, "B3": {"name": "GFP-Mrr fusion protein (Mrr, Methylated adenine Recognition and Restriction, fused with GFPmut2) (enzyme)", "chain": "B1 chain with A203D"}}, "key": {"[1]": {"target": "the molecule itself", "test": "scanning Number and Brightness"}, "[2]": {"target": "the molecule itself", "test": "SEC"}, "[3]": {"target": "the molecule itself", "test": "scanning Number and Brightness", "remark": "listed apart in the source"}}, "note": "Where a chain is given by its changes, count along the chain named. Names and notes keep the numbering of the source. Values joined by “and” are separate entries in the source; they are usually repeats but may differ in a detail not shown here. Equal values may be shown once."}
{"protein": "B1", "values": [{"measurement": "stoichiometry N", "setting": "[1]", "value": 2}]}
{"protein": "B2", "values": [{"measurement": "stoichiometry N", "setting": "[2]", "value": "4 and 2"}]}
{"protein": "B3", "values": [{"measurement": "stoichiometry N", "setting": "[3]", "value": 2}]}
